The values below come from paper PMC4189786.

The target in this series is serum albumin (HSA in Results and figures; Methods state purchased bovine serum albumin, Sigma A7030) ((Methods: bovine)) (UniProt P02769). The series can be described thus: tryptophan fluorescence quenching. To be noted: 6 uM albumin, off-target, 6 uM albumin in phosphate buffer (10 mM) pH 7.4, 37 C, excitation 290 nm, emission 300-400 nm, 90 s after each aptamer addition.
Chain of serum albumin (HSA in Results and figures; Methods state purchased bovine serum albumin, Sigma A7030) ((Methods: bovine)) (P02769 25-607): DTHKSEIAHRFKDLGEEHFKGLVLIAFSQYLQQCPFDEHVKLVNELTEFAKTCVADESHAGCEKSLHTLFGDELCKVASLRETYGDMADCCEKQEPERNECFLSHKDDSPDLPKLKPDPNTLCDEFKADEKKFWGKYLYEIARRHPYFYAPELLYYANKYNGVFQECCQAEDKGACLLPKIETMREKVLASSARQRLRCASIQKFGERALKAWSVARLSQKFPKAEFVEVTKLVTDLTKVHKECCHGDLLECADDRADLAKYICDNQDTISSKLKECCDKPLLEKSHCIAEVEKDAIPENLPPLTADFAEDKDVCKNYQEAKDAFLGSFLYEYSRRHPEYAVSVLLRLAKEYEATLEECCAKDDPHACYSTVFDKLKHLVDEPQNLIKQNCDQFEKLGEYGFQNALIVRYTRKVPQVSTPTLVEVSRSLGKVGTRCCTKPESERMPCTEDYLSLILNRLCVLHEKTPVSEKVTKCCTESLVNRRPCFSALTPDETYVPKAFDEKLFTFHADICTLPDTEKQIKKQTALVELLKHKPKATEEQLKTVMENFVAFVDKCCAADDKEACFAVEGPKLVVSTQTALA

For the sequence “ACTTTTGAATGTGGCAACAAATTCGACAGG [1.5 M Short]”, the binding signal is 9 % quenching (aptamer:HSA 1:10) and 1.5 % quenching (aptamer:HSA 1:100).

Turning to “GGGAGACAAGAATAAACGCTCAAATGGACTTTTGAATGTGGCAACAAATTCGACAGGAGGCTCACAACAGGC [1.5 M Long]”, the binding signal is 16 % quenching (aptamer:HSA 1:10) and 2.4 % quenching (aptamer:HSA 1:100).
